Consider 14 sequences from the DeepSol protein solubility set.

The data set is described as follows: soluble on expression in E. coli; label from the status in PepcDB or PDB records.
Consider “MNKQRFVVIDVETTGNSPKKGDKIIQIAAVVIENGQITERFSKYINPNKSIPAFIEQLTGISNQMVENEQPFEAVAEEVFQLLDGAYFVAHNIHFDLGFVKYELHKAGFQLPDCEVLDTVELSRIVFPGFEGYKLTELSEELQLRHDQPHRADSDAEVTGLIFLEILEKLRQLPYPTLKQLRRLSQHFISDLTHLLDMFINENRHTEIPGYTRFSSFSVREPEAIDVRINEDENFSFEIESWEAGNEKALSELMPGYEKRDGQMMMMREVADAFANREHALIEAPPGIGKTIGYLIPAALFAKKSKKPVIISTYSTLLQQQILTKDLPIVQDLFPFPVTAAILKGQSHYLCLYKFEQVLHEEDDNYDAVLTKAQLLVWLTETNTGDVAELNLPSGGKLLWDRLAYDDDSYKRSRSEHVIGFYERAKQIAMRSDLVITNHSLLLTDEGSHKKRLPESGTFIIDEAHHFERAASEHLGKRATYIELHTKLSRIGTLKEQGLLKKMRQLFQRNSLPVDSFFELEEWLQHVQAESDAFFSSVHSFVKRRKPKEDLNRLVFKVNKESQDKSWSILTDGAERLCSMLTHLQQLFEAQSSLMEKHLKGMKSKTVFLADEYQRSMKGLQHYCQTLQKLFFGSDDDEAVWIEIDAKGAKNAVAIYAQPLEPGELLADQFFARKNSVVLTSATLTVEGSFQFMIERLGLSDFFPRTMRIESPFSYDERMQVMIPKEMKSIQDTGQPEFIQDTARYIELMAKEKQPKILVLFTSHDMLKKVHQELKHNMSASGIQLLAQGITGGSPGKLMKTFKTSNQAILLGTNHFWEGVDFPGDELTTVMIVRLPFRSPDHPLHAAKCELARKKGKNPFQTVSLPEAVLTFRQGIGRLLRSAGDKGTIIILDRRIKTAGYGRLFLDALPTTSVSEMTDSELEAY”, for which the “soluble on expression in E. coli” value is reported as “not soluble”. For “MAHHHHHHMPFVDHNKYKIQREDLPALPHFTDFNDPRFCGTNNKQKNGILAYYQWLHCVGNWGEEHSMCKKMRWYVERMMQEVWLEKWEEKRALGHFDHVLLYGVKPWKDFEPLYQPVKTNRKGAYEFWLDRDFEPLYDADASDFCEKAPILHDIFVKGKKPVYDE” the value was “not soluble”; for “MDGTMEDSEAVQRATALIEQRLAQEEENEKLRGDTRQKLPMDLLVLEDEKHHGAQSAALQKVKGQERVRKTSLDLRREIIDVGGIQNLIELRKKRKQKKRDALAASHEPPPEPEEITGPVDEETFLKAAVEGKMKVIEKFLADGGSADTCDQFRRTALHRASLEGHMEILEKLLDNGATVDFQDRLDCTAMHWACRGGHLEVVKLLQSHGADTNVRDKLLSTPLHVAVRTGQVEIVEHFLSLGLEINARDREGDTALHDAVRLNRYKIIKLLLLHGADMMTKNLAGKTPTDLVQLWQADTRHALEHPEPGAEHNGLEGPNDSGRETPQPVPAQLEHHHHHH”, “not soluble”.

For “VADVVPLDHNNRILVSQGLKRMRSGKMRPGIRALFEVARRDWRKAQPFDMGFALGPRINAAGRLDDMSVGIACLLARDDSEAQELAAQLNNLNIERREIEQSMLQDALNDFPETLPSGQMTLVAYRDDFHQGVVGIV”, the “soluble on expression in E. coli” value is reported as “not soluble”. “MGSDKIHHHHHHMNAIAKHKENLLLDGFTIIDDIYSDEEVQQILAVIENADMSNETFRKSSDLFAIRQFLKEIPEAKELIYNKNLKKVGAELFGTDFFTVKSIYFDKPETSNWYVAYHQDLTISVDTKIDLAGFGPWTVKQNQFAVQPPLEILKNIFTIRIHLDDTNEENGALKVVPGSHAKNIYRPETIDWSVEKEISCNVKKGGIMIMKPLLLHSSGRTTNNKKRRVIHIEFSNQELPVELNWAERLN”: the “soluble on expression in E. coli” value was “not soluble”. For “MGSDKIHHHHHHMVGMLERTIAGLQRNNMAGYFVHNRQELMALLSGLMEKGQTVGCGDSVTLEELGVFDFLRKGDYIFYDKYVPGLTSEDKRRLYIQNFAADTFITGTNAVTTDGKLFNIDGNGSRVAPMIYGPRQVIVVVGTNKITEDVESAIQRVRQIAAPMDAKRLKKETPCTKLNRCVDCRHPQRICNDFVLITGQFVKDRIKVIIIDMEIGY” the value was “not soluble”; for “MILEKAREILEEHQLCNHCLGRLFGKLGKGTNEERGRAIRLLLSMETGKEYKEPEKCELCGGVFNNLDKFAELCIKAAEGIEFETFWVGSRFPEEIEKKEEEIWRKFRVVSGEKITKEFNRELGKVIAVRYGKTPVKERPDVVFIVEPFSEKVELQVNPIYVAGRYRKLIRGIPQTPAPGFKESIATIICRAFKKHFHGKCIFKGAGREDVDVRMLGNGRPFVVEIKRPRKRKVNLKDIEEEINQSGKVEVLNLRFITPEEAERILTTRHRKVYEAIVYVKDGITKEEVEKVVKSLKNAEIKQRTPRRVLNSRADLVRVRKVYDVKGELIDDKHFKLRLVTDGGLYIKELISGDRGRTTPSVSEILGKEAWCEILDVLEVLDDVEGDNLEHHHHHH”, “not soluble”; for “MGSDKIHHHHHHMKQYGEKFIDEFSKAEFEKLAKQGQLIDVRTEEEYALGHINGSILHPVDEIESFNKEKNKTYYVICRSGNRSANASKYLAKQGYNVINLDGGYKAYEENDSYDTQEEYKSIEIKADRKQFNYRGFQCPGPIVKISQEMKNIEVGDQIEVKVTDPGFPSDIKSWVKQTRHTLVKLDENNNGINAIIQKEKAKDLDINYSAKGTTIVLFSGELDKAVAALIIANGARAAGKDVTIFFTFWGLNALKKVQTVNVKKQGIAKMFDLMLPQKNIRMPLSKMNMFGLGNMMMRYVMKKKNVDSLPTLINQAIEQNIKLIACTMSMDVMGIQKEELRDEVEYGGVGTYIGATENANHNLFI”, “not soluble”. The value for “MTMDTAQLKSQIQQYLVESGNYELISNELKARLLQEGWVDKVKDLTKSEMNINESTNFTQILSTVEPKALEMVSDSTRETVLKQIREFLEEIVDTQ” was “soluble”.

With “MADEQEIMCKLESIKEIRNKTLQMEKIKARLKAEFEALESEERHLKEYKQEMDLLLQEKMAHVEELRLIHADINVMENTIKQSENDLNKLLESTRRLHDEYKPLKEHVDALRMTLGLQRLPDLCEEEEKLSLDYFEKQKAEWQTEPQEPPIPESLAAAAAAAQQLQVARKQDTRQTATFRQQPPPMKACLSCHQQIHRNAPICPLCKAKSRSRNPKKPKRKQDE”, the “soluble on expression in E. coli” value is listed as “not soluble”. The value for “MLIVKTLVIIPTYNEAENIRPLVEDILDRYPEGLELLVIDDSSPDGTAGIVKAIMKNEPRVMLLSRPSKLGLGTAYLTGFRYALERGYERVIEMDADFSHDPASIASLIKAMDGADMVIGSRYMNNTVNVVNWPLSRLILSKSASIYSRWITGMPVSDPTSGFKCISAKALRFIALDRVRSQGYSFQIEIDFRVWKKNLVIHEVPIIFVDRSVGKSKMTRKNIVEAVWMVWWLKFLSIIGRLLEHHHHHH” was “not soluble”; that for “WTCNKFRCGEKRLTRSLCACSDDCKDQGDCCINYSSVCQGEKS” was “soluble”; that for “MSGDGDSSTTSSAGDGSTSKDKIPAFSEIRVIEVNRDNFAKIWPYLLVCIKSADFTAIDLELSGLGGKGLRSRDIAERYQAIRDAAHTRSILSVGIATMKLTHKSEKRRALRYETQVFNILTFSEKPFTIEPSALQFLAKHSFDFNRLIQSGVRFQGANCPLKTLFRELLGSSATFCLHNGFIDLAFIYKQLYDIDLPDTLDGFVNNLSDMFPDNYLPVADSKYLAEYQTRMTASFLEYVFRRTQGDNEIERQNNRYHIEICFPSSEKSIKALKNATESVDVRLPEGFPDHAIPIDLHIHVCKYFAYHGFCHARNTEKGCKLLHDVDTAIDLQRIKENKKAFKRKRRYNNVIAESVAEKTGTDEEAWKNAKFEQNLLTRDFRELKRNVVTGLHRAGVDAFMTAFAVIYQQRRTLMADNSVDLKFLNRVPLSAKDKPLHLRHRPVPVPQSEQIDAHLEAMVEINKQRDYIRMNAAATVIKSVQKEDTPCED” was “not soluble”. The value for “MPRIVFDCLIDQPAARHLIERIDALTALLVRDNVVYSAHVDHQPQSPQPDSVREELTTTYLRDRGAETADELSDSVVALDELSLQRFTIVVDGLNGSLNETAMTYSRLLTPAARLSNDALDLTDEQRYEVPAAYPWTVFVSA” was “not soluble”.
